Assay results from US20210355204A1.

Tests used:
TGFβ2 (human) [1] = target: TGFβ2 (human) (UniProt P61812); test: SPR (Biacore 2000), TGFβ immobilised on CM1 chip, antibody injected
TGFβ3 (human) [2] = target: TGFβ3 (human) (UniProt P10600); test: as above
TGFβ1 (human) [3] = target: TGFβ1 (human) (UniProt P01137); test: as above
TGFβ2 (human) [4] = target: TGFβ2 (human) (UniProt P61812); test: cell-based or functional assay
TGFβ3 (human) [5] = target: TGFβ3 (human) (UniProt P10600); test: cell-based or functional assay
TGFβ1 (human) [6] = target: TGFβ1 (human) (UniProt P01137); test: cell-based or functional assay
TGFβ2 (human) [7] = target: TGFβ2 (human) (UniProt P61812); test: SPR (Biacore A100), BM-1 captured on anti-mouse Fc CM5 chip, TGFβ injected
TGFβ3 (human) [8] = target: TGFβ3 (human) (UniProt P10600); test: as above
TGFβ1 (human) [9] = target: TGFβ1 (human) (UniProt P01137); test: as above

Sequence of TGFβ2 (human) (P61812 303-414 limits assumed): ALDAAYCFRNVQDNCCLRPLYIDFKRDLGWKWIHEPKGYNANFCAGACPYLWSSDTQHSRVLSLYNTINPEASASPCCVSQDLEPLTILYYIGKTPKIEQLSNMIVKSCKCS
Sequence of TGFβ3 (human) (P10600 301-412 limits assumed): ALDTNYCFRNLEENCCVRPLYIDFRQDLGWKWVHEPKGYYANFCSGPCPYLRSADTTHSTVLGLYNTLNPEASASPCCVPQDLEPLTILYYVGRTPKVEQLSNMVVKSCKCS
Sequence of TGFβ1 (human) (P01137 279-390 limits assumed): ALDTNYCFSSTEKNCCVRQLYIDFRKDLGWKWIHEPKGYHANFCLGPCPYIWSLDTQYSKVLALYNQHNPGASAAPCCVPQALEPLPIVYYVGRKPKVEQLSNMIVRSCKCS

B1: BM-1 (1D11, R&D Systems MAB1835) (antibody, from another filing, V domains shown)
VH: QVQLQQSGPELVRPGASVKLSCKASGYIFITYWMNWVKQRPGQGLEWIGQIFPASGSTNYNEMFEGKATLTVDTSSSTAYMQLSSLTSEDSAVYYCARGDGNYALDAMDYWGQGTSVTVSS
VL: DIVLTQSPASLAVSLGQRATISCRASESVDSYGNSFMHWYQQKSGQPPKLLIYLASNLESGVPARFSGSGSRTDFTLTIDPVEADDAATYYCQQNNEDPLTFGAGTKLEIK
Kd (TGFβ2 (human) [1]): 977 pM | koff (TGFβ2 (human) [1]): 0.00684 s⁻¹ | kon (TGFβ2 (human) [1]): 7e+06 M⁻¹ s⁻¹ | Kd (TGFβ3 (human) [2]): 188 pM | koff (TGFβ3 (human) [2]): 0.000946 s⁻¹ | kon (TGFβ3 (human) [2]): 5.05e+06 M⁻¹ s⁻¹ | Kd (TGFβ1 (human) [3]): 304 pM | koff (TGFβ1 (human) [3]): 0.0039 s⁻¹ | kon (TGFβ1 (human) [3]): 1.28e+07 M⁻¹ s⁻¹ | IL-11 Release Assay - IC50 (A549 cells) (TGFβ2 (human) [4]): 0.498 µg/mL | HT-2 cell neutralization assay, IC50 (TGFβ3 (human) [5]): 196 | IL-11 Release Assay - IC50 (A549 cells) (TGFβ3 (human) [5]): 0.012 µg/mL | HT-2 cell neutralization assay, IC50 (TGFβ1 (human) [6]): 220 | IL-11 Release Assay - IC50 (A549 cells) (TGFβ1 (human) [6]): 0.292 µg/mL | Kd (TGFβ2 (human) [7]): 170 pM | koff (TGFβ2 (human) [7]): 0.002 s⁻¹ | kon (TGFβ2 (human) [7]): 1.1e+07 M⁻¹ s⁻¹ | Kd (TGFβ3 (human) [8]): 48 pM | koff (TGFβ3 (human) [8]): 0.00031 s⁻¹ | kon (TGFβ3 (human) [8]): 6.5e+06 M⁻¹ s⁻¹ | Kd (TGFβ1 (human) [9]): 72 pM | koff (TGFβ1 (human) [9]): 0.0014 s⁻¹ | kon (TGFβ1 (human) [9]): 1.9e+07 M⁻¹ s⁻¹
